Laboratory results from patent US20260176352A1 (BIRD ROCK BIO, published 2026).

How the values were obtained:
[1] = biological target: native full length human CB1 receptor (cannabinoid 1 receptor) (human, UniProt P21554 1-472); experiment: cell-based or functional assay
[2] = biological target: T1, A138 iCAPS (CB1 with ICL3 native sequence replaced with protein 1 sequence) (human, UniProt P21554 99-414); experiment: ELISA, purified IgG on A138 CB1 iCAPS
T1 construct: The insert stands inside the chain in place of ICL3
Description: (§1) Purified IgG was tested for binding to purified CB1 receptor (CB1 Conformation Antigen Presenting System (iCAPS)) by ELISA. Non-biotinylated antigens (e.g. empty iCAPS) were coated directly on Maxisorp plates. The primary antibodies were purified IgGs with 1:3 serial dilutions, incubated on the plate for 1 hour. After 3 rounds of washing with PBST, secondary antibodies HRP goat anti-mouse IgG (Abmart) or HRP goat anti-human IgG (Sigma), depending on the species of the IgGs were added and incubated for another hour. The plates were washed three times with PBST, then developed with TMB (Biopanda). HCl was added to the plates to stop the reaction. Absorbance at 450 nm was read on Emax precision microplate reader (Molecular Devices).

[3] = biological target: T2, A139 iCAPS (CB1 with ICL3 native sequence replaced with BRIL) (human, UniProt P21554 99-414); experiment: ELISA, purified IgG on A139 CB1 iCAPS
T2 construct: The insert stands inside the chain in place of ICL3
Description: as §1

T2 sequence (P21554 whole entry): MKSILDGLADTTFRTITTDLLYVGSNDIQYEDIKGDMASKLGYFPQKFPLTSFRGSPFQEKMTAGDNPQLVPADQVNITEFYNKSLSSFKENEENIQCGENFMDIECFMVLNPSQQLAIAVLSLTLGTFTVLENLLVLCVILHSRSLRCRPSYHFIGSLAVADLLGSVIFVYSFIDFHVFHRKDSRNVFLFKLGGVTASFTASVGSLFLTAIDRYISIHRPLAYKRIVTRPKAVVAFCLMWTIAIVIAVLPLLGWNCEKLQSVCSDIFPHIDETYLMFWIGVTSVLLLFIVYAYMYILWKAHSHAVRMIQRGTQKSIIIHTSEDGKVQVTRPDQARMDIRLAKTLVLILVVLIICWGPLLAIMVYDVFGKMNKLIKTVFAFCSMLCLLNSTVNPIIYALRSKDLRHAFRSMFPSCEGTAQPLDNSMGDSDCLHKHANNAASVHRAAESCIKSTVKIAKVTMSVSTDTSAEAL
Chain of native full length human CB1 receptor (cannabinoid 1 receptor) (P21554 whole entry): as above
T1 sequence (P21554 whole entry): as above

Row | Binder | EC50, cAMP agonist functional assay [1] | EC50, cAMP assay in the presence of CP55940 [1] | EC50 [2] | EC50 [3]
1 | PA2LR3-P6G7 (chimeric) (antibody, human IgG1, kappa, V domains shown) VH: EVQLQQSGAELVRPGSSVKISCKASGFAFSNYWMNWVKQRPGQGLEWIGQIYPGDGDTNFNGKFKGRAILTADISSNTAYMQLSSLTSEDSAVYFCARSHGNYFPYWGQGTLVTVSA VL: DIVLTQSPAIMSASLGERVTMTCTASSSVSSSYLHWYQQKPGSSPKLWIYSTSNLASGVPARFSGSGSGTSYSLTISSMEAEDAATYYCHQHHRSPPTFGAGTKLELKR | > 300 nM | – | – | –
2 | PA2LR3-P6B12 (chimeric) (antibody, human IgG1, kappa, V domains shown) VH: EVQLQQSGAELVRPGSSVKISCKASGYAFSYYWMNWVKQRPGQGLEWIGQIYPGDGDTNYNGKFKGKATLTADKSSSTAYMQLSSLTSEDSAVYFCARSHGNYFAYWGQGTLVTVSA VL: QIVLTQSPAIMSASLGERVTMTCTASSSVSSSYLHWYQQKPGSSPKLWIYSTSNLASGVPARFSGSGSGTSYSLTISSMEAEDAATYYCHQYHRSPLAFGAGTKLELKR | – | ~1000 nM | – | –
3 | PA2LR3-P2D3 (chimeric) (antibody, human IgG1, kappa, V domains shown) VH: EVQLQQSGAELVRPGSSVKISCKASGYAFSYYWMNWVKQRPGQGLEWIGQIYPGDGDTNYNGKFKGKATLTADKSSSTAYMQLSSLTSEDSAVYFCARSHGSYFAYWGQGTLVTVSA VL: DIELAQSPASLAVSLGQRATISCRASESVDSYGNSFMHWYQQKPGQPPKLLIYLASNLESGVPARFSGSGSRADFTLTIDPVEADDAATYYCLQYASSPPTFGAGTKLEIKR | > 300 nM | – | 4.9 nM | 2.6 nM
4 | PA2LR3-P4B1 (chimeric) (antibody, human IgG1, kappa, V domains shown) VH: EVQLQQSGAELVRPGSSVKISCKASGFAFSNYWMNWVKQRPGQGLEWIGQIYPGDGDTNFNGKFKGRAILTADISSNTAYMQLSSLTSEDSAVYFCARSHGNYFPYWGQGTLVTVSA VL: QIVLTQSPAIMSASLGERVTMTCTASSSVSSSYLHWYQQKPGSSPKLWIYSTSNLASGVPARFSGSGSGTSYSLTISSMEAEDAATYYCHQYHRSPLTFGAGTKLELKR | > 300 nM | – | 1.28 nM | 1.41 nM
5 | PA2LR3-P3B10 (chimeric) (antibody, V domains shown) VH: EVQLQQSGAELVRPGSSVKISCKASGYAFSYYWMNWVKQRPGQGLEWIGQIYPGDGDTNYNGKFKGKATLTADKSSSTAYMQLSSLTSEDSAVYFCARSHGNYFPYWGQGTLVTVSA VL: DIVITQSPAIVSASLGERVTMTCTASSSVSSSYLHWYQQKPGSSPKLWIYSTSNLASGVPARFSGSGSGTSYSLTISSMEAEDAATYYCQQWSSYPLTFGAGTKLEIKR | – | – | 1.4 nM | 0.78 nM
6 | PA2LR3-P1G6 (chimeric) (antibody, V domains shown) VH: EVQLQQSGAELVRPGSSVKISCKASGYAFSYYWMNWVKQRPGQGLEWIGQIYPGDGDTNYNGKFKGKATLTVDKSSSTAYMQLSSLTSEDSAVYFCARSHGNYFAYWGQGTLVTVSA VL: DIVLSQSPAIMSASLGERVTMTCTASSSVSSSYLHWYQQKPGSSPKLWIYSTSNLASGVPARFSGSGSGTSYSLTISRMEAEDAATYYCQQWSSYPLTFGAGTKLELKR | – | – | 81 nM | 35 nM
7 | PA2LR3-P1H4 (chimeric) (antibody, V domains shown) VH: EVQLQQSGAELVRPGSSVKISCKASGYVFGNYWMNWVKQRPGQGLEWIGQIYPGDGDTNYNGKFKGKATLTADKSSSTAYMQLSSLTSEDSAVYFCARSHGNYFPYWGQGTLVTVSA VL: QIVLTQSPAIMSASLGERVTMTCTASSSVSSSYLHWYQQKPGSSPKLWIYSTSNLASGVPARFSGSGSGTSYSLTISSMEAEDAATYYCQQWSSYPLTFGAGTKLELKR | – | – | 21 nM | 33.5 nM
8 | PA2LR3-P2B8 (chimeric) (antibody, V domains shown) VH: EVQLQQSGAELVRPGSSVKISCKASGYAFSYYWMNWVKQRPGQGLEWIGQIYPGDGDTNYNGKFKGKATLTADKSSSTAYMQLSSLTSEDSAVYFCARSHGNYFAYWGQGTLVTVSA VL: DIVMTQSPAIMSASLGERVTMTCTASSSISSSYLHWYQQKPGSSPKLWIYSTSNLASGVPARFSGSGSGTSYSLTISSMEAEDAATYYCHQYHRSPLAFGAGTKLELKR | – | – | 6.7 nM | 1.8 nM
9 | PA2LR3-P2E5 (chimeric) (antibody, V domains shown) VH: EVQLQQSGAELVRPGSSVKISCKASGYAFRDYWMNWVKQRPGQGLEWIGQIYPGDGATNYIGKFKGKATLTADKSSSTAYMQLSSLTSEDSAVYFCARSHGNYFPYWGHGTLVTVSA VL: QIVLTQSPAIMSASLGERVTMTCTASSSVSSSYLHWYQQKPGSSPKLWIYSTSNLASGVPARFSGSGSGTSYSLTISSMEAEDAATYYCQQWSSYPLTFGAGTKLELKR | – | – | 10 nM | 3.2 nM
10 | PA2LR3-P3B8 (chimeric) (antibody, V domains shown) VH: EVQLQQSGAELVRPGSSVKISCKASGFAFSNYWMNWVKQRPGQGLEWIGQIYPGDGDTNFNGKFKGRAILTADISSNTAYMQLSSLTSEDSAVYFCARSHGNYFPYWGQGTLVTVSA VL: DIVMTQSPAIMSASLGERVTMTCTASSSVSSSYLHWYQQKPGSSPKLWIYGTSNLASGVPVRFSGSGSGTSYSLTISSMEAEDAATYYCQQWSSYPLTFGAGTKLELKR | – | – | 71 nM | –
11 | PA2LR3-P4G10 (chimeric) (antibody, V domains shown) VH: EVQLQQFGAELVRPGSSVKISCKASGYAFSYYWMNWVKQRPGQGLEWIGQIYPGDGDTNYNGKFKGKATLTADKSSSTAYMQLSSLTSEDSAVYFCARSHGNYFAYWGQGTLVTVSA VL: DIVLTQSPAIMSASLGERVTMTCTASSSVSSSYLHWYQQKPGSSPKLWIYSTSNLASGVPARFSGSGSGTSYSLTISSMEAEDAATYYCQQWSSNPLTFGAGTKLELKR | – | – | 1.19 nM | 1.35 nM
12 | PA2LR3-P4C6 (chimeric) (antibody, V domains shown) VH: EVQLQQSGAELVRPGSSVKISCKASGYAFSYYWMNWVKQRPGQGLEWIGQIYPGDGDTNYNGKFKGKATLTADKSSSTAYMQLSSLTSEDSAVYFCARSHGNYFPYWGQGTLVTVSA VL: DIVITQSPAIVSASLGERVTMTCTASSSVSSSYLHWYQQKPGSSPKLWIYSTSNLASGVPARFSGSGSGTSYSLTISSMEAEDAATYYCQQWSSYPLTFGAGTKLEIKR | – | – | 0.4 nM | 0.4 nM
13 | PA2R3-P1F1 (chimeric) (antibody, V domains shown) VH: EVQLQQSGAELMKPGASVKISCKATGYTFSSYWIEWVKQRPGHGLEWIGEILPGSGSTNYNEKFKGKATFTADTSSNTAYMQLSSLTSEDSAVYYCARGAWLLSYWYFDVWGAGTSVTVSS VL: DIQMMQSTSSLSASLGDRVTISCSASQGISNYLNWYQQKPDGTVKLLIYYTSSLHSGVPSRFSGSGSGTQFSLKINSLQPEDFGSYYCQHHYGTPYTFGGGTKLELKR | – | – | 1.3 nM | 1.1 nM
